Data set [1] addresses Rob Cys281-Cy3B;RNA polymerase sigma70 holoenzyme (Escherichia coli;Escherichia coli, UniProt P0ACI0;P0A7Z4;P0A8V2;P0A8T7;P0A800;P00579 1-289;1-329;1-1342;1-1407;1-91;1-613, C147S;C247S|). Description: single-molecule FRET.
The target in data set [2] is Rob Cys281-Cy3B;biotinylated RNAP holoenzyme (Escherichia coli;Escherichia coli?, UniProt P0ACI0;P0A7Z4;P0A8V2;P0A8T7;P0A800;P00579 1-289;1-329;1-1342;1-1407;1-91;1-613, C147S;C247S|). Description: single-molecule FRET.

Data on two molecules can be found in publication PMC9178005.

B1: micF DNA2-Cy5-biotin (bioDNA) (dsDNA)
DNA 1: GTATTTGACAGCACTGAATGTCAAAACAAAACCTTCACTCGCAACTATAATGGGAGCTGTCACGGATGCAACTTTATTTATTACC
DNA 2: GGTAATAAATAAAGTTGCATCCGTGACAGCTCCCATTATAGTTGCGAGTGAAGGTTTTGTTTTGACATTCAGTGCTGTCAAATAC
modifications: internal Cy5-dT in template strand
B1: in data set [1], the binding result is “binds”.

B2: micF DNA2-Cy5 (dsDNA)
DNA 1: GTATTTGACAGCACTGAATGTCAAAACAAAACCTTCACTCGCAACTATAATGGGAGCTGTCACGGATGCAACTTTATTTATTACC
DNA 2: GGTAATAAATAAAGTTGCATCCGTGACAGCTCCCATTATAGTTGCGAGTGAAGGTTTTGTTTTGACATTCAGTGCTGTCAAATAC
modifications: internal Cy5-dT in template strand
Regarding B2, the binding result in data set [2] is “binds”.
